The nature of the data set: self-splicing fitness, log relative to wild type (ln ratio); higher = more splicing; Tetrahymena group I intron in knt gene, E. coli kanamycin selection, DiMSum; sequences stand for … in CUCUCU…GGAGGGAAAAGUUAUCAGGCAUGCACCUGGUAGCUAGUCUUUAAACCAAUAGAUUGCAUCGGUUUAAAAGGCAAGACCGUCAAAUUGCGGGAAAGGGGUCAACAGCCGUUCAGUACCAAGUCUCAGGGGAAACUUUGAGAUGGCCUUGCAAAGGGUAUGGUAAUAAGCUGACGGACAUGGUCCUAACCACGCAGCCAAGUCCUAAGUCAACAGAUCUUCUGUUGAUAUGGAUGCAGUUCACAGACUAAAUGUCGGUCGGGGAAGAUGUAUUCUUCUCAUAAGAUAUAGUCGGACCUCUCCUUAAUGGGAGCUAGCGGAUGAAGUGAUGCAACACUGGAGCCGCUGGGAACUAAUUUGUAUGCGAAAGUAUAUUGAUUAGUUUUGGAGUACUCGUGGUCG
The essentials: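 DiMSum derived fitness as the error-weighted combination of fold changes across replicates, kanamycin versus no kanamycin, normalised to wild type. E. coli BL21(DE3) held the library, which randomised all eight P1ex-region intron nucleotides within the knt kanamycin-resistance gene on pET-22b(+). Six replicate transformations grew overnight at 37°C or 30°C on LB agar with or without 25 μg/mL kanamycin, also containing 100 μg/mL carbenicillin, 50 μM IPTG and 0.2% rhamnose, and pooled colonies were amplicon-sequenced on an Illumina HiSeq 2500.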

± gives the uncertainty stated by the source.

Take UUUGAGCAAUAUUACGCAUC: the “self-splicing fitness (ln)” value is -3.03 ± 0.28 (30 °C) and -2.39 ± 0.38 (37 °C). In the same order, the values of GGUAAGCAAUAUUACGAAGU are -1.93 ± 0.31 and -1.78 ± 0.25. With UUGUAGCAAUAUUACGGCGC, the “self-splicing fitness (ln)” value (37 °C) is -2.34 ± 0.2. Turning to CCCCAGCAAUAUUACGAAGC, the “self-splicing fitness (ln)” value was -4.34 ± 0.31 (30 °C) and -3.28 ± 0.3 (37 °C). In the same order, the values of AUAUAGCAAUAUUACGUUAC are -3.05 ± 0.29 and -2.33 ± 0.24. For CUAAAGCAAUAUUACGCGAG, in that order: -0.464 ± 0.077 and 0.0633 ± 0.11. For UCCAAGCAAUAUUACGAUGG, in that order: -1.01 ± 0.059 and 0.16 ± 0.083.

As to UUCCAGCAAUAUUACGUCAA, the “self-splicing fitness (ln)” value is, setting by setting: (30 °C) -1.3 ± 0.1; (37 °C) -0.233 ± 0.12. Turning to AUACAGCAAUAUUACGCUAC, the “self-splicing fitness (ln)” value (30 °C) was -2.36 ± 0.35.

CUGAAGCAAUAUUACGCGUU: the “self-splicing fitness (ln)” value is, setting by setting: (30 °C) -3.36 ± 0.18; (37 °C) -2.86 ± 0.24. Regarding GUUUAGCAAUAUUACGGGGC, the “self-splicing fitness (ln)” value (30 °C) was -2.67 ± 0.33. The same measure, in the same setting: the figure for UGCCAGCAAUAUUACGGAAC is -3.49 ± 0.34. Turning to CACUAGCAAUAUUACGCGUC, the “self-splicing fitness (ln)” value reads like this: (30 °C) -1.84 ± 0.1; (37 °C) -2.75 ± 0.21. In the same order, the values of AGUUAGCAAUAUUACGUGAC are -2.66 ± 0.24 and -2.9 ± 0.33. In the same order, the values of UCAUAGCAAUAUUACGUCUA are -2.05 ± 0.19 and -0.601 ± 0.14.

Take GUUAAGCAAUAUUACGCUUG: the “self-splicing fitness (ln)” value was -2.28 ± 0.14 (30 °C) and -0.983 ± 0.15 (37 °C).

As to AAAAAGCAAUAUUACGUCCC, the “self-splicing fitness (ln)” value is -0.842 ± 0.15 (30 °C) and 0.362 ± 0.23 (37 °C). For AUCGAGCAAUAUUACGAAGC, the “self-splicing fitness (ln)” value (30 °C) was -3.18 ± 0.39.

Turning to UGUCAGCAAUAUUACGAGCU, the “self-splicing fitness (ln)” value reads like this: (30 °C) -0.801 ± 0.088; (37 °C) -0.417 ± 0.11. For the sequence UCAGAGCAAUAUUACGCCGA, the “self-splicing fitness (ln)” value runs as follows: (30 °C) -3.18 ± 0.33; (37 °C) -1.63 ± 0.23. For UUGAAGCAAUAUUACGGAUU, in that order: -1.18 ± 0.081 and -0.94 ± 0.12. For CCUCAGCAAUAUUACGGUUU, in that order: -3.37 ± 0.13 and -2.73 ± 0.16. In the same order, the values of GGUCAGCAAUAUUACGCGCG are -0.298 ± 0.092 and -0.546 ± 0.11. For the sequence GACUAGCAAUAUUACGCCCC, the “self-splicing fitness (ln)” value runs as follows: (30 °C) -0.792 ± 0.23; (37 °C) -0.904 ± 0.27. For GCUCAGCAAUAUUACGUCCU, in that order: -1.16 ± 0.11 and -0.818 ± 0.14.

For AAUAAGCAAUAUUACGUCAC, the “self-splicing fitness (ln)” value (30 °C) was -3.19 ± 0.17 and the “self-splicing fitness (ln)” value (37 °C) was -3.17 ± 0.21. With CUUCAGCAAUAUUACGUACC, the “self-splicing fitness (ln)” value by setting is: (30 °C) -2.36 ± 0.3; (37 °C) -2.12 ± 0.24. In the same order, the values of AAGCAGCAAUAUUACGCGUC are -3.03 ± 0.16 and -1.7 ± 0.15.

In the case of GUCAAGCAAUAUUACGGAGG, the “self-splicing fitness (ln)” value (37 °C) was -2.5 ± 0.25.

Regarding AGCCAGCAAUAUUACGUUCG, the “self-splicing fitness (ln)” value (30 °C) was -3.46 ± 0.19 and the “self-splicing fitness (ln)” value (37 °C) is -2.48 ± 0.22.

GGCAAGCAAUAUUACGGCCA: the “self-splicing fitness (ln)” value is -1.24 ± 0.17 (30 °C) and -0.0702 ± 0.17 (37 °C). In the same order, the values of CGGAAGCAAUAUUACGAAGA are -3.45 ± 0.4 and -3.08 ± 0.47. In the case of GCUGAGCAAUAUUACGUGCC, the “self-splicing fitness (ln)” value (30 °C) was -3.37 ± 0.34. CGCCAGCAAUAUUACGCCUA: the “self-splicing fitness (ln)” value was -3 ± 0.36 (30 °C) and -1.98 ± 0.32 (37 °C). Take UGUAAGCAAUAUUACGUCAA: the “self-splicing fitness (ln)” value was -2.57 ± 0.18 (30 °C) and -0.839 ± 0.16 (37 °C).

In the case of AUCAAGCAAUAUUACGCCAC, the “self-splicing fitness (ln)” value (30 °C) is -1.42 ± 0.29 and the “self-splicing fitness (ln)” value (37 °C) is -1.79 ± 0.4.

As for UCCCAGCAAUAUUACGGUGC, the “self-splicing fitness (ln)” value by setting is: (30 °C) -2.41 ± 0.13; (37 °C) -1.51 ± 0.13. For CCCUAGCAAUAUUACGUCGA, in that order: -3.58 ± 0.21 and -2.51 ± 0.19.

For AUAAAGCAAUAUUACGAUUG, the “self-splicing fitness (ln)” value was -2.38 ± 0.14 (30 °C) and -1.14 ± 0.16 (37 °C). Turning to GCGUAGCAAUAUUACGCAAC, the “self-splicing fitness (ln)” value is -3.87 ± 0.18 (30 °C) and -2.33 ± 0.17 (37 °C). For AGGAAGCAAUAUUACGUCGA, in that order: -1.4 ± 0.16 and -0.922 ± 0.16. For AGGUAGCAAUAUUACGUCUC, in that order: -3.938 ± 0.036 and -2.38 ± 0.047. In the same order, the values of GAUGAGCAAUAUUACGUGUA are -2.77 ± 0.16 and -1.87 ± 0.16.

For the sequence UACUAGCAAUAUUACGGUUU, the “self-splicing fitness (ln)” value (30 °C) is -1.41 ± 0.1 and the “self-splicing fitness (ln)” value (37 °C) is -0.44 ± 0.12.

As for GAUGAGCAAUAUUACGUAAU, the “self-splicing fitness (ln)” value by setting is: (30 °C) -2.8 ± 0.23; (37 °C) -1.55 ± 0.28. For UGUGAGCAAUAUUACGCAUU, in that order: -4.49 ± 0.29 and -1.77 ± 0.3. For CUGAAGCAAUAUUACGUCGU, in that order: -3.23 ± 0.26 and -1.79 ± 0.21. With CCAAAGCAAUAUUACGCUGA, the “self-splicing fitness (ln)” value is -4.48 ± 0.36 (30 °C) and -2.75 ± 0.19 (37 °C). In the same order, the values of CAGUAGCAAUAUUACGUAAA are -2.13 ± 0.16 and -1.61 ± 0.24.

For UGUUAGCAAUAUUACGCUGC, the “self-splicing fitness (ln)” value is, setting by setting: (30 °C) -1.63 ± 0.18; (37 °C) -2.44 ± 0.32. For UGCAAGCAAUAUUACGUGUG, in that order: -2.69 ± 0.098 and -2.81 ± 0.14. In the same order, the values of CACUAGCAAUAUUACGCCAU are -3.88 ± 0.44 and -2.45 ± 0.28.

In the case of UCGAAGCAAUAUUACGUAUU, the “self-splicing fitness (ln)” value is -2.99 ± 0.18 (30 °C) and -3.17 ± 0.31 (37 °C). With GAUGAGCAAUAUUACGGCCG, the “self-splicing fitness (ln)” value (30 °C) stood at 0.414 ± 0.41.

In the case of CUUCAGCAAUAUUACGAUCG, the “self-splicing fitness (ln)” value reads like this: (30 °C) -0.136 ± 0.044; (37 °C) 0.234 ± 0.069.

For the sequence CAGGAGCAAUAUUACGCCUG, the “self-splicing fitness (ln)” value by setting is: (30 °C) -3.09 ± 0.29; (37 °C) -1.01 ± 0.22.

For GUAUAGCAAUAUUACGAAUU, the “self-splicing fitness (ln)” value was -3.2 ± 0.22 (30 °C) and -1.13 ± 0.18 (37 °C).

As to CAAUAGCAAUAUUACGACGG, the “self-splicing fitness (ln)” value was -0.109 ± 0.076 (30 °C) and 0.524 ± 0.1 (37 °C). CUAGAGCAAUAUUACGACUA: the “self-splicing fitness (ln)” value by setting is: (30 °C) -1.97 ± 0.12; (37 °C) -1.26 ± 0.15.

Turning to CAGUAGCAAUAUUACGCCAC, where the note is “30 °C”, the “self-splicing fitness (ln)” value was -2.54 ± 0.3. Consider CGUGAGCAAUAUUACGCAGU, for which the “self-splicing fitness (ln)” value is -3.4 ± 0.41 (30 °C) and -2.03 ± 0.44 (37 °C). In the same order, the values of AUUCAGCAAUAUUACGGCCU are -1.03 ± 0.12 and 0.0851 ± 0.22. For AUUAAGCAAUAUUACGGAUA, in that order: -2.12 ± 0.28 and -1.99 ± 0.2.

Take AUUAAGCAAUAUUACGGUUU: the “self-splicing fitness (ln)” value (30 °C) is -0.783 ± 0.07 and the “self-splicing fitness (ln)” value (37 °C) turned out to be 0.254 ± 0.12. On to UUGAAGCAAUAUUACGUUUA, for which the “self-splicing fitness (ln)” value runs as follows: (30 °C) -1.08 ± 0.062; (37 °C) -0.682 ± 0.084. With GCAGAGCAAUAUUACGUAGA, the “self-splicing fitness (ln)” value by setting is: (30 °C) -2.99 ± 0.15; (37 °C) -1.78 ± 0.14. For UAGGAGCAAUAUUACGUGUA, in that order: -2.02 ± 0.13 and -1.63 ± 0.12.

Turning to UAGUAGCAAUAUUACGUCUG, the “self-splicing fitness (ln)” value was 0.113 ± 0.19 (30 °C) and -0.884 ± 0.2 (37 °C). Consider GUUAAGCAAUAUUACGUGAG, for which the “self-splicing fitness (ln)” value by setting is: (30 °C) -0.109 ± 0.052; (37 °C) -0.0542 ± 0.098.

Consider UGAUAGCAAUAUUACGCCAA, for which the “self-splicing fitness (ln)” value by setting is: (30 °C) -3.37 ± 0.27; (37 °C) -1.85 ± 0.15. In the same order, the values of CGCUAGCAAUAUUACGUUUU are -3.8 ± 0.16 and -1.68 ± 0.13. In the same order, the values of GAAUAGCAAUAUUACGAGGA are -2.85 ± 0.33 and -1.5 ± 0.18. In the same order, the values of GUUGAGCAAUAUUACGGGAC are -2.69 ± 0.34 and -1.49 ± 0.35. In the case of GUCGAGCAAUAUUACGCUUG, under “37 °C”, the “self-splicing fitness (ln)” value was -2.36 ± 0.33. Consider UUAAAGCAAUAUUACGCUAC, for which the “self-splicing fitness (ln)” value is -3.55 ± 0.26 (30 °C) and -1.91 ± 0.2 (37 °C). As to AUAUAGCAAUAUUACGAAAG, the “self-splicing fitness (ln)” value runs as follows: (30 °C) -3.28 ± 0.25; (37 °C) -2.08 ± 0.38. Regarding GGCGAGCAAUAUUACGAGUU, the “self-splicing fitness (ln)” value (30 °C) is -2.42 ± 0.14 and the “self-splicing fitness (ln)” value (37 °C) is -1.19 ± 0.16. In the same order, the values of UGUCAGCAAUAUUACGUAAA are -0.534 ± 0.13 and -0.324 ± 0.16.

These data come from the supplement of paper PMC7877785.
